Fraction ligated data for 34 variants are collected here from the supplement of paper PMC6755084.

B1: F1*; the commonest letter at each place (parent)
chain: GAGACCGCAACTGAAAAGTTGTTATCACTTGTCGTAAGACACTTTGGATGGGTTGAAGTTCTGCACGTAGAAGCAAAAGGC

Variants of B1 are the subject of this data set. Nature of the data set: fraction ligated after 30 min (ligated reads / total reads); higher = more ligase activity. The conditions noted are these: with F1*sub RNA substrate (template-directed ligation), 42 °C. In outline: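 Oligo-pool templates underwent PCR amplification, T7 transcription and gel purification to yield ribozyme variants. Gel-separated ligated and unligated bands were converted to complementary DNA with barcoded primers and sequenced on a MiSeq, keeping core bases of quality ≥20. The ratio of ligated reads to total reads gave the fraction ligated for every variant.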
Regarding GAGACCGCAACTGAAAAGTTGTTATCACTTATCGTAAGACGCTTTGGATGGGTTGAAGTTCTGCACGTAGAAGCAAAAGGC [G31A A41G], the fraction ligated was determined as 0.797. In the case of GAGACCGCAACTGAAAAGTTGTTATCACTCGTCGTAAGACACTTTGGATGGGTTCAAGTTCTGCACGTAGAAGCAAAAGGC [T30C G55C] it was 0.504; in that of GAGACCGCAACTGAAAAGTTGTTATCACTTGTCGTAACACACTATGGATGGGTTGAAGTTCTGCACGTAGAAGCAAAAGGC [G38C T44A], 0.845; in that of GAGACCGCAACTGAAAAGTTGTGATCAATTGTCGTAAGACACTTTGGATGGGTTGAAGTTCTGCACGTAGAAGCAAAAGGC [T23G C28A], 0.789.

With GAGACCGCAACTGAAAAGTTGTTATCACTTGTCGTAAGACACTTTCGATGGGTTCAAGTTCTGCACGTAGAAGCAAAAGGC [G46C G55C], the fraction ligated turned out to be 0.171. To GAGACCGCAACTGAAAAGTTGTTATCACTTGTCGTAATACACTTTGGATGGGTTGTAGTTCTGCACGTAGAAGCAAAAGGC [G38T A56T] belongs 0.826; to GAGACCGCAACTGAAAAGTTGTAATCACTTGTCGTAAGACACTGTGGATGGGTTGAAGTTCTGCACGTAGAAGCAAAAGGC [T23A T44G], 0.801.

In the case of GAGACCGCAACTGAAAAGTTGTTATCACTTGTCGTAAGAAACCTTGGATGGGTTGAAGTTCTGCACGTAGAAGCAAAAGGC [C40A T43C], the fraction ligated was 0.768. In the case of GAGACCGCAACTGAAAAGTTGTTATCAATTGTCGTAACACACTTTGGATGGGTTGAAGTTCTGCACGTAGAAGCAAAAGGC [C28A G38C] it was 0.814. For the variant GAGACCGCAACTGAAAAGTTGTAATAACTTGTCGTAAGACACTTTGGATGGGTTGAAGTTCTGCACGTAGAAGCAAAAGGC [T23A C26A], the fraction ligated was found to be 0.318.

Take GAGACCGCAACTGAAAAGTTGTTATCACTTGCCGAAAGACACTTTGGATGGGTTGAAGTTCTGCACGTAGAAGCAAAAGGC [T32C T35A]: the fraction ligated stood at 0.811.

Regarding GAGACCGCAACTGAAAAGTTGTTATCACTTGTCGTAACACACTTTGTATGGGTTGAAGTTCTGCACGTAGAAGCAAAAGGC [G38C G47T], the fraction ligated was 0.045. To GAGACCGCAACTGAAAAGTTGTTCTCACTTGTCGTAAGACACGTTGGATGGGTTGAAGTTCTGCACGTAGAAGCAAAAGGC [A24C T43G] belongs 0.792; to GAGACCGCAACTGAAAAGTTGTTATGACTTGTTGTAAGACACTTTGGATGGGTTGAAGTTCTGCACGTAGAAGCAAAAGGC [C26G C33T], 0.738.

GAGACCGCAACTGAAAAGTTGTTATCACTTGTCGTAAGGCACTTTGGGTGGGTTGAAGTTCTGCACGTAGAAGCAAAAGGC [A39G A48G]: the fraction ligated is 0.814. Consider GAGACCGCAACTGAAAAGTTGTTATCACTTGTCGTGAGACACTTTGGATAGGTTGAAGTTCTGCACGTAGAAGCAAAAGGC [A36G G50A], for which the fraction ligated came to 0.41. In the case of GAGACCGCAACTGAAAAGTTGTTATCACTTGCCGTAATACACTTTGGATGGGTTGAAGTTCTGCACGTAGAAGCAAAAGGC [T32C G38T] it was 0.768; in that of GAGACCGCAACTGAAAAGTTGTTATCACTTGTCGTAAGACACTTAGGATCGGTTGAAGTTCTGCACGTAGAAGCAAAAGGC [T45A G50C], 0.0158.

With GAGACCGCAACTGAAAAGTTGTTATCAGTTGTCGTAAGACACTTTGCATGGGTTGAAGTTCTGCACGTAGAAGCAAAAGGC [C28G G47C], the fraction ligated amounted to 0.484. To GAGACCGCAACTGAAAAGTTGTTTTCACTTGTCGTAAGACACTTCGGATGGGTTGAAGTTCTGCACGTAGAAGCAAAAGGC [A24T T45C] belongs 0.0212. Regarding GAGACCGCAACTGAAAAGTTGTTATCACTTCTCGTAAGACACTTGGGATGGGTTGAAGTTCTGCACGTAGAAGCAAAAGGC [G31C T45G], the fraction ligated came out at 0.0355. In the case of GAGACCGCAACTGAAAAGTTGTTATCATTTGTCGTAAGATACTTTGGATGGGTTGAAGTTCTGCACGTAGAAGCAAAAGGC [C28T C40T] it was 0.796. With GAGACCGCAACTGAAAAGTTGTTATCACATGTCGTAAGACACTTTAGATGGGTTGAAGTTCTGCACGTAGAAGCAAAAGGC [T29A G46A], the fraction ligated is 0.808. As to GAGACCGCAACTGAAAAGTTGTTATCACTTGTCGTAAGACAATTTGTATGGGTTGAAGTTCTGCACGTAGAAGCAAAAGGC [C42A G47T], the fraction ligated amounted to 0.704. Regarding GAGACCGCAACTGAAAAGTTGTTATCACTTGTCGTAACACACTTAGGATGGGTTGAAGTTCTGCACGTAGAAGCAAAAGGC [G38C T45A], the fraction ligated turned out to be 0.551. To GAGACCGCAACTGAAAAGTTGTTATCACTTGTAGTAAGACACCTTGGATGGGTTGAAGTTCTGCACGTAGAAGCAAAAGGC [C33A T43C] belongs 0.834; to GAGACCGCAACTGAAAAGTTGTTATCACTTGTCGGAAGAGACTTTGGATGGGTTGAAGTTCTGCACGTAGAAGCAAAAGGC [T35G C40G], 0.837. To GAGACCGCAACTGAAAAGTTGTTATCTCTAGTCGTAAGACACTTTGGATGGGTTGAAGTTCTGCACGTAGAAGCAAAAGGC [A27T T30A] belongs 0.775. As for GAGACCGCAACTGAAAAGTTGTTATCACTTGTCGTAACACGCTTTGGATGGGTTGAAGTTCTGCACGTAGAAGCAAAAGGC [G38C A41G], the fraction ligated amounted to 0.793. To GAGACCGCAACTGAAAAGTTGTTATCACTTGTCATAAGACACTTTGGATGGGTTGACGTTCTGCACGTAGAAGCAAAAGGC [G34A A57C] belongs 0.791; to GAGACCGCAACTGAAAAGTTGTTATCACTTGTCGTAAGAGACTGTGGATGGGTTGAAGTTCTGCACGTAGAAGCAAAAGGC [C40G T44G], 0.807; to GAGACCGCAACTGAAAAGTTGTTATCACTTGTCGTAAGACACATTGCATGGGTTGAAGTTCTGCACGTAGAAGCAAAAGGC [T43A G47C], 0.515. To GAGACCGCAACTGAAAAGTTGTTATCACTTATCGCAAGACACTTTGGATGGGTTGAAGTTCTGCACGTAGAAGCAAAAGGC [G31A T35C] belongs 0.813. To GAGACCGCAACTGAAAAGTTGTTACCACTAGTCGTAAGACACTTTGGATGGGTTGAAGTTCTGCACGTAGAAGCAAAAGGC [T25C T30A] belongs 0.75.
